For experiment [1], the target named is 原核表达并纯化的sIFN-λ4重组蛋白 (porcine IFN-λ4, E. coli, pET-15b-sIFN-λ4) (pig). The experiment is described as follows: indirect ELISA, antigen coated in 2-fold dilutions; positive if OD630nm of the well : OD630nm of the negative well ≥2.1. For orientation: In an ELISA, binding on a coated surface is turned into a signal by an enzyme label.
Experiment [2] has the same target. Put plainly: indirect ELISA, purified ascites antibody diluted 100-fold and then in 2-fold steps to 100×2^12.

Results on one molecule are retold here after CN115125215A.

B1: 单克隆抗体λ4-1A2 (sIFN-λ4单克隆抗体, secreted by hybridoma cell line λ4-1A2, CCTCC NO:C2022132) (antibody, V domains shown)
VH: QVTLKESGPGKLQPSQTLTLTCSFSGFSLNTYGIGVAWIRQPSGKGLEWLAHIWWNDNKYYNSALKTRLTISKDTSNNQVFLKIASVDTADTATYYCASIKGDYWGQGTS
VL: NIVLTQSPASLAVSLGQRATISCRASKSVDSFGKSFMHWYQQKPGQPPKLLIYLVSNLESGVPARFSGSGSRTDFTLTIDPVEADDAATYYCQQNNEDPPTFGGGTKLEIKR
Take B1: the 最低检测限 (lowest detectable amount of coated antigen) in experiment [1] came to 6.25 ng. In experiment [2], this molecule gave a 效价 (ELISA titre) (fold dilution) of 205000.
